Assays:
human VEGFA165 (human) [1] = target: human VEGFA165 (human) (UniProt P15692); experiment: cell-based or functional assay
human VEGFA165 (human) [2] = target: human VEGFA165 (human) (UniProt P15692); experiment: SPR Biacore 8K, VEGFA165 (GenScript) on CM5 at low immobilization, protein as analyte, 1:1 model

Chain of human VEGFA165 (human) (P15692 other isoform, or with tags, fused parts or gaps limits assumed): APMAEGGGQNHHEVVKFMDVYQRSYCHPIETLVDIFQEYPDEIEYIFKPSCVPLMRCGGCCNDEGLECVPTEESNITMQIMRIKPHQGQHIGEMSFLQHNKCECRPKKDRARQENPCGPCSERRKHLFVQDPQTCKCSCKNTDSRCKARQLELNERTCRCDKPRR

Row | Substance | HUVEC proliferation inhibition IC50 (human VEGFA165 (human) [1]) [nM] | HUVEC proliferation inhibition Maximum inhibition rate (%) (human VEGFA165 (human) [1]) | Kd (human VEGFA165 (human) [2]) [nM] | koff (human VEGFA165 (human) [2]) [s⁻¹] | kon (human VEGFA165 (human) [2]) [M⁻¹ s⁻¹]
1 | Aflibercept (Fc fusion) | 0.81 | 60 | 0.0584 | 9.57e-05 | 1.64e+06
2 | human IgG1 antibody (hIgG1 control) that binds to HIV | – | 0 | – | – | –

— patent EP4574846A1
